{"source": "patent US6328728A", "about": "“Composition and method for enhancing electrotransport agent delivery” (Alza Corporation, priority 1997, dated 2001)", "assay": "Electrophoretic mobility by capillary zone electrophoresis", "type": "physicochemical", "conditions": "for Electrophoretic Mobility (Average) / Electrophoretic Mobility: 32° C.", "protocol": "Since electrophoretic mobility (ie, the ability of a drug/agent to migrate in an electric field) is an important aspect of electrotransport drug delivery, the electrophoretic mobility of the drug/agent being delivered is predictive of suitability for transdermal electrotransport delivery. Electrophoretic mobility measurements were performed using a capillary zone electrophoresis instrument (model 2100 P/ACE instrument, Beckman Instruments, Inc., Palo Alto, Calif.). At acid pH values DB-WAX, DB-1, DB-17 (J&W Scientific, Folsom, Calif.) capillary columns were used either with 50 or 100 micron internal diameter column and CElect H75 (Supelco, Bellefonte, Pa.) capillary column with a 75 micron internal diameter. At alkaline pH values uncoated silica capillaries of length 57 cm with an internal diameter of 75 microns were used with an applied voltage of 20 kV. If any electroosmotic flow was present, it was detected using a neutral marker such as 0.01% benzyl alcohol (SIGMA, St. Louis, Mo.) or 1/500 mesityl oxide (Applied Biosystems, Foster City, Calif.). The optimum voltage was determined by doing an Ohm's Law test on each buffer and capillary system. The temperature of the capillary columns was set at 32° C. and a two second pressure injection was done. A UV detector was used to monitor peptide and markers at either 214 or 280 nm.\nVoltage injection had to be used for the 27 cm length column. The voltage applied varied depending on the capillary length.\nThe following equation was used to determine electrophoretic mobility μ. [formula]\nIf the electroosmotic flow is detected, the following equation can be used.\nμpeptide =μtotal -μneutral marker\nThe measurement procedures described above were conducted on an aqueous solution of the protein insulinotropin, with TWEEN® 20 (MW=1126 g/mol) as the surfactant, with the following modifications. The insulinotropin donor solution concentration was 0.12 mg/mL. One test was run in 10 mM sodium borate at pH 9.0 and another test in 10 mM sodium chloroacetate at pH 3.5.\nFractional changes (%δ) are defined as the difference between the reading at a given surfactant concentration (Ec) minus the reading at zero surfactant (E0), the quantity divided by the difference between the reading at saturated surfactant concentration (Es) minus the reading at zero surfactant (E0), i. e. %δ=(Ec -E0)/(Es-E0).\nThe measurement procedures described earlier were conducted in this example on an aqueous solution containing insulinotropin as the agent and dodecyl trimethyl ammonium chloride (DTAC) as the ionic surfactant with the following modifications. […]\nThe same measurement procedures were conducted using an aqueous solution of salmon calcitonin as the agent and the zwitterionic dodecyl sulfobetaine as the surfactant with the following modifications. The temperature was initially 32° C., the surfactant concentration was varied up to 30 mM, and the calcitonin concentration was 0.06 to 0.08 mM. Tables 7, 8, and 9 below provide the results obtained in terms of polypeptide ellipticity expressed as a function of zwitterionic surfactant concentration at pH 3.5 in 12 mM sodium chloroacetate (Table 7), 5.0 in 4 mM piperazine HCI (Table 8), and 6.5 in 15 mM sodium cacodylate (Table 9), respectively. Table 8, in addition, provides the results obtained on electrophoretic mobility and HIC retention time in a phenyl superose column at pH 5.0.", "key": {"[1]": {"conditions": "pH 3.5, 10 mM sodium chloroacetate, TWEEN 20 0"}, "[2]": {"conditions": "pH 3.5, 10 mM sodium chloroacetate, TWEEN 20 0.133 mM"}, "[3]": {"conditions": "pH 3.5, 10 mM sodium chloroacetate, TWEEN 20 0.266 mM"}, "[4]": {"conditions": "pH 3.5, 10 mM sodium chloroacetate, TWEEN 20 0.515 mM"}, "[5]": {"conditions": "pH 3.5, 10 mM sodium chloroacetate, TWEEN 20 1.00 mM"}, "[6]": {"conditions": "pH 3.5, 10 mM sodium chloroacetate, TWEEN 20 2.28 mM"}, "[7]": {"conditions": "pH 3.5, 10 mM sodium chloroacetate, TWEEN 20 4.44 mM"}, "[8]": {"conditions": "pH 9.0, 10 mM sodium borate, TWEEN 20 0"}, "[9]": {"conditions": "pH 9.0, 10 mM sodium borate, TWEEN 20 0.133 mM"}, "[10]": {"conditions": "pH 9.0, 10 mM sodium borate, TWEEN 20 0.266 mM"}, "[11]": {"conditions": "pH 9.0, 10 mM sodium borate, TWEEN 20 0.515 mM"}, "[12]": {"conditions": "pH 9.0, 10 mM sodium borate, TWEEN 20 1.00 mM"}, "[13]": {"conditions": "pH 9.0, 10 mM sodium borate, TWEEN 20 2.28 mM"}, "[14]": {"conditions": "pH 9.0, 10 mM sodium borate, TWEEN 20 4.44 mM"}, "[15]": {"conditions": "pH 9.0, 10 mM sodium borate, TWEEN 20 8.88 mM"}, "[16]": {"conditions": "pH 9.0, 10 mM sodium borate, TWEEN 20 13.3 mM"}, "[17]": {"conditions": "pH 9.0, 10 mM sodium borate, TWEEN 20 20.0 mg/mL"}, "[18]": {"conditions": "pH 9.0, 10 mM sodium borate, TWEEN 20 25.0 mg/mL"}}}
{"substance": "Insulinotropin: the protein insulinotropin", "values": [{"measurement": "Electrophoretic Mobility (Average)", "setting": "pH 3.5, 10 mM sodium chloroacetate, DTAC 0", "result": 1.80, "unit": "cm^2 /V-s × 10^-4"}, {"measurement": "Electrophoretic Mobility (Average)", "setting": "pH 3.5, 10 mM sodium chloroacetate, DTAC 0.83 mM", "result": 1.82, "unit": "cm^2 /V-s × 10^-4"}, {"measurement": "Electrophoretic Mobility (Average)", "setting": "pH 3.5, 10 mM sodium chloroacetate, DTAC 1.64 mM", "result": 1.81, "unit": "cm^2 /V-s × 10^-4"}, {"measurement": "Electrophoretic Mobility (Average)", "setting": "pH 3.5, 10 mM sodium chloroacetate, DTAC 20.0 mM", "result": 3.46, "unit": "cm^2 /V-s × 10^-4"}, {"measurement": "Electrophoretic Mobility (Average)", "setting": "pH 3.5, 10 mM sodium chloroacetate, DTAC 25.0 mM", "result": 3.33, "unit": "cm^2 /V-s × 10^-4"}, {"measurement": "Electrophoretic Mobility", "setting": "[1]", "result": -1.8, "unit": "cm^2 /Vs ×10^-4"}, {"measurement": "Electrophoretic Mobility", "setting": "[2]", "result": -1.72, "unit": "cm^2 /Vs ×10^-4"}, {"measurement": "Electrophoretic Mobility", "setting": "[3]", "result": -1.58, "unit": "cm^2 /Vs ×10^-4"}, {"measurement": "Electrophoretic Mobility", "setting": "[4]", "result": -1.32, "unit": "cm^2 /Vs ×10^-4"}, {"measurement": "Electrophoretic Mobility", "setting": "[5]", "result": -1.14, "unit": "cm^2 /Vs ×10^-4"}, {"measurement": "Electrophoretic Mobility", "setting": "[6]", "result": -1.08, "unit": "cm^2 /Vs ×10^-4"}, {"measurement": "Electrophoretic Mobility", "setting": "[7]", "result": -1.01, "unit": "cm^2 /Vs ×10^-4"}, {"measurement": "Electrophoretic Mobility, fractional change (% δ)", "setting": "[1]", "result": 0}, {"measurement": "Electrophoretic Mobility, fractional change (% δ)", "setting": "[2]", "result": 0.10}, {"measurement": "Electrophoretic Mobility, fractional change (% δ)", "setting": "[3]", "result": 0.28}, {"measurement": "Electrophoretic Mobility, fractional change (% δ)", "setting": "[4]", "result": 0.61}, {"measurement": "Electrophoretic Mobility, fractional change (% δ)", "setting": "[5]", "result": 0.84}, {"measurement": "Electrophoretic Mobility, fractional change (% δ)", "setting": "[6]", "result": 0.91}, {"measurement": "Electrophoretic Mobility, fractional change (% δ)", "setting": "[7]", "result": 1.00}, {"measurement": "Electrophoretic Mobility", "setting": "[8]", "result": -1.06, "unit": "cm^2 Vs × 10^-4"}, {"measurement": "Electrophoretic Mobility", "setting": "[9]", "result": -1.05, "unit": "cm^2 Vs × 10^-4"}, {"measurement": "Electrophoretic Mobility", "setting": "[10]", "result": -1.01, "unit": "cm^2 Vs × 10^-4"}, {"measurement": "Electrophoretic Mobility", "setting": "[11]", "result": -1.00, "unit": "cm^2 Vs × 10^-4"}, {"measurement": "Electrophoretic Mobility", "setting": "[12]", "result": -0.89, "unit": "cm^2 Vs × 10^-4"}, {"measurement": "Electrophoretic Mobility", "setting": "[13]", "result": -0.73, "unit": "cm^2 Vs × 10^-4"}, {"measurement": "Electrophoretic Mobility", "setting": "[14]", "result": -0.62, "unit": "cm^2 Vs × 10^-4"}, {"measurement": "Electrophoretic Mobility", "setting": "[15]", "result": -0.61, "unit": "cm^2 Vs × 10^-4"}, {"measurement": "Electrophoretic Mobility", "setting": "[16]", "result": -0.55, "unit": "cm^2 Vs × 10^-4"}, {"measurement": "Electrophoretic Mobility", "setting": "[17]", "result": -0.58, "unit": "cm^2 Vs × 10^-4"}, {"measurement": "Electrophoretic Mobility", "setting": "[18]", "result": -0.53, "unit": "cm^2 Vs × 10^-4"}, {"measurement": "Electrophoretic Mobility, fractional change (% δ)", "setting": "[8]", "result": 0}, {"measurement": "Electrophoretic Mobility, fractional change (% δ)", "setting": "[9]", "result": 0.02}, {"measurement": "Electrophoretic Mobility, fractional change (% δ)", "setting": "[10]", "result": 0.09}, {"measurement": "Electrophoretic Mobility, fractional change (% δ)", "setting": "[11]", "result": 0.11}, {"measurement": "Electrophoretic Mobility, fractional change (% δ)", "setting": "[12]", "result": 0.32}, {"measurement": "Electrophoretic Mobility, fractional change (% δ)", "setting": "[13]", "result": 0.62}, {"measurement": "Electrophoretic Mobility, fractional change (% δ)", "setting": "[14]", "result": 0.83}, {"measurement": "Electrophoretic Mobility, fractional change (% δ)", "setting": "[15]", "result": 0.85}, {"measurement": "Electrophoretic Mobility, fractional change (% δ)", "setting": "[16]", "result": 0.96}, {"measurement": "Electrophoretic Mobility, fractional change (% δ)", "setting": "[17]", "result": 0.91}, {"measurement": "Electrophoretic Mobility, fractional change (% δ)", "setting": "[18]", "result": 1.00}]}
{"substance": "Salmon Calcitonin [reference compound]", "values": [{"measurement": "Electrophoretic Mobility", "setting": "pH 5.0, 4 mM piperazine-HCl, dodecyl sulfobetaine 0, calcitonin 0.076 mM", "result": "2.4 × 10^-4 cm^2 /V-sec"}, {"measurement": "Electrophoretic Mobility", "setting": "pH 5.0, 4 mM piperazine-HCl, dodecyl sulfobetaine 0.83 mM, calcitonin 0.076 mM", "result": "2.3 × 10^-4 cm^2 /V-sec"}, {"measurement": "Electrophoretic Mobility", "setting": "pH 5.0, 4 mM piperazine-HCl, dodecyl sulfobetaine 1.64 mM, calcitonin 0.075 mM", "result": "2.2 × 10^-4 cm^2 /V-sec"}, {"measurement": "Electrophoretic Mobility", "setting": "pH 5.0, 4 mM piperazine-HCl, dodecyl sulfobetaine 3.23 mM, calcitonin 0.074 mM", "result": "2.2 × 10^-4 cm^2 /V-sec"}, {"measurement": "Electrophoretic Mobility", "setting": "pH 5.0, 4 mM piperazine-HCl, dodecyl sulfobetaine 6.25 mM, calcitonin 0.072 mM", "result": "1.7 × 10^-4 cm^2 /V-sec"}, {"measurement": "Electrophoretic Mobility", "setting": "pH 5.0, 4 mM piperazine-HCl, dodecyl sulfobetaine 7.69 mM, calcitonin 0.071 mM", "result": "1.5 × 10^-4 cm^2 /V-sec"}, {"measurement": "Electrophoretic Mobility", "setting": "pH 5.0, 4 mM piperazine-HCl, dodecyl sulfobetaine 9.77 mM, calcitonin 0.069 mM", "result": "1.6 × 10^-4 cm^2 /V-sec"}, {"measurement": "Electrophoretic Mobility", "setting": "pH 5.0, 4 mM piperazine-HCl, dodecyl sulfobetaine 12.4 mM, calcitonin 0.067 mM", "result": "1.4 × 10^-4 cm^2 /V-sec"}, {"measurement": "Electrophoretic Mobility", "setting": "pH 5.0, 4 mM piperazine-HCl, dodecyl sulfobetaine 18.4 mM, calcitonin 0.062 mM", "result": "0.96 × 10^-4 cm^2 /V-sec"}, {"measurement": "Electrophoretic Mobility", "setting": "pH 5.0, 4 mM piperazine-HCl, dodecyl sulfobetaine 26.4 mM, calcitonin 0.056 mM", "result": "0.88 × 10^-4 cm^2 /V-sec"}]}
